By EC90 is commonly meant the concentration needed for an effect of 90%. Low values mean greater potency, high ones weaker potency. In general, clearance refers to the volume of plasma or blood freed of the substance per unit of time. For orientation: IC50 means the midpoint of a concentration-inhibition curve.

These results are taken from patent US7906485B2, “Erythropoietin receptor peptide formulations and uses” (Affymax, Inc., priority 2005, dated 2011).

In series [1] the test system is human, bone marrow derived CD34+ cells. In words: C/BFU-e assay (erythroid colonies). Format: cell-based. The protocol:
EPO-R signaling stimulates the differentiation of bone marrow stem cells into proliferating red blood cell precursors. This assay measures the ability of test peptides to stimulate the proliferation and differentiation of red blood cell precursors from primary human bone marrow pluripotent stem cells.
For this assay, serial dilutions of test peptide are made in IMDM medium (Gibco) supplemented with 10% FBS (Hyclone). These serial dilutions, or positive control EPO peptide, are then added to methylcellulose to give a final volume of 1.5 mL. The methylcellulose and peptide mixture is then vortexed thoroughly. Aliquots (100,000 cells/mL) of human, bone marrow derived CD34+ cells (Poietics/Cambrex) are thawed. The thawed cells are gently added to 0.1 mL of 1 mg/ml DNAse (Stem Cells) in a 50 mL tube. Next, 40-50 mL IMDM medium is added gently to cells: the medium is added drop by drop along the side of the 50 mL tube for the first 10 mL, and then the remaining volume of medium is slowly dispensed along the side of the tube. The cells are then spun at 900 rpm for 20 min, and the media removed carefully by gentle aspiration. The cells are resuspended in 1 ml of IMDM medium and the cell density per mL is counted on hemacytometer slide (10 μL aliquot of cell suspension on slide, and cell density is the average count×10,000 cells/ml). The cells are then diluted in IMDM medium to a cell density of 15,000 cells/mL. A 100 μL of diluted cells is then added to each 1.5 mL methyl cellulose plus peptide sample (final cell concentration in assay media is 1000 cells/mL), and the mixture is vortexed. Allow the bubbles in the mixture to disappear, and then aspirate 1 mL using blunt-end needle. Add 0.25 mL aspirated mixture from each sample into each of 4 wells of a 24-well plate (Falcon brand). Incubate the plated mixtures at 37° C. under 5% CO2 in a humid incubator for 14 days. Score for the presence of erythroid colonies using a phase microscope (5×-10× objective, final magnification of 100×). The concentration of test peptide at which the number of formed colonies is 90% of maximum, relative to that observed with the EPO positive control, is recorded as the EC90 [See Table 2: C/BFU-e EC90].

Series [2] in a line: Phase 1 study in normal healthy volunteers: safety. Format: in vivo, human. The source says: (§1) Peptide I has been tested in […] in one Phase 1 study. This first-in-human study with Peptide I was a randomized, double-blind, placebo-controlled, single-dose, IV, escalating dose, safety and tolerability trial. The primary objectives of the study were to evaluate the safety and pharmacokinetics of Peptide I, and to establish a pharmacologically active dose (PAD). Cohorts of seven male volunteers were scheduled to receive single doses of Peptide I or placebo in a 5:2 ratio. Cohorts were to be added at increasing dose levels until a PAD, as determined by an increase in hemoglobin from baseline values, was observed, at which point the dose level identified as the PAD would be repeated in another cohort of volunteers.
(§2) The study was initiated in four cohorts were enrolled in a consecutive manner at Peptide I doses of 0.025, 0.05, 0.1 mg/kg, and […], respectively (single dose per cohort). […] As such, the study was terminated.

Series [3] in a line: Pharmacokinetic studies in dogs. Format: in vivo.
The nature of series [4]: Pharmacokinetic studies in rats. It counts as in vivo.
The nature of series [5]: Pharmacokinetic studies in rats, dogs and monkeys (general statements). Format: in vivo.
The subject of series [6] is erythropoiesis. Kind of series: Phase 1 study in normal healthy volunteers: pharmacodynamics. Format: in vivo, human.
Excerpt: as §1, §2

The nature of series [7]: Phase 1 study in normal healthy volunteers: pharmacokinetics. Format: in vivo, human.
Excerpt: as §1, §2
In the 0.025 mg/kg dose group, Peptide I concentration peaked between 5 and 15 minutes, while tmax approached 1 hour for the 0.1 mg/kg dose.

Series [8] relates to erythropoiesis. Kind of series: Pharmacology studies in animals (erythropoiesis). It counts as in vivo, mice, rats, dogs, rabbits and monkeys.
Series [9] concerns the target T1, recombinant EPO-R produced in Chinese Hamster Ovary cells as a fusion protein to a portion of the human … (human, UniProt P19235 25-250).
T1 sequence (looked up): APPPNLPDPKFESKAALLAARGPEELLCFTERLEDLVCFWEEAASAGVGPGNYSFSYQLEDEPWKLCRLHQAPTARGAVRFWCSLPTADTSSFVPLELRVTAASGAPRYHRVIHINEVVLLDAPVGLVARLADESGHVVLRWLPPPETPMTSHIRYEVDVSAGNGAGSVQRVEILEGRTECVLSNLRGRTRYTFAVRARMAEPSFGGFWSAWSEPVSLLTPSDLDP
In words: AlphaQuest bead proximity competition; competitor: biotinylated tracer peptide SEQ ID NO: 4 (30 nM) on streptavidin donor beads, EPO-R fusion on acceptor beads.

For series [10], the target named is T2, Recombinant Human EPO R/Fc Chimera (human, UniProt P19235 25-250).
T2 construct: extracellular domain; Bought: R&D Systems, catalog number 963-ER; also called recombinant EPOr extracellular domain fused to the Fc portion of human IgG1; recombinant erythropoietin receptor; not shown: Fc portion of human IgG1
T2 sequence (looked up): T1 sequence (looked up)
Kind of series: radioligand competition; competitor: 125I-EPO; EPO R/Fc chimera 100 pg/tube, Protein-G Sepharose pull-down, gamma counting.

[11] abbreviates: five-sixth nephrectomy rats, IV 9.87 mg/kg.

Bridge positions count the residues as written; N and C are the ends. Square brackets hold non-standard residues; d marks the D form. Ends that are not written are not given here. 1Nal = N[C@@H](Cc1cccc2ccccc12)C(=O)O; Sar = CNCC(=O)O

“Peptide IV: peptide dimer of SEQ ID NO: 1 monomers (AcG)GLYACHMGPIT(1-nal)VCQPLRK (Ac-GGLYACHMGPIT[1Nal]VCQPLRK; disulfide 6-15 (inferred); not fully specified (residue 1); printed as (AcG)GLYACHMGPIT(1-nal)VCQPLRK; also: homodimer joined through a branched tertiary amide linker on the Lys20 side chain, PEG carried on the linker)” yielded a concentration for an effect of 90% (EC90) in series [1] (Table 4) of 6.2 nM.
For the molecule “peptide dimer of SEQ ID NO: 2 monomers (AcG)GLYACHMGPIT(1-nal)VCQPLR(MeG)K; a fully synthetic EPO receptor agonist (Ac-GGLYACHMGPIT[1Nal]VCQPLR[Sar]K; disulfide 6-15 (inferred); not fully specified (residue 1); printed as (AcG)GLYACHMGPIT(1-nal)VCQPLR(MeG)K; also: homodimer joined through a branched tertiary amide linker on the Lys21 side chain, PEG carried on the linker) [Peptide I]”, in series [2] (Peptide I group), the “number of adverse events” value is given as 22. In [2] (Peptide I recipients), the “AEs considered probably not related to the study drug” value is recorded as 15/22. Also, in series [2] (human, in vivo), the “Serious Adverse Events or withdrawals due to an AE” value is listed as “no Serious Adverse Events (SAEs) or withdrawals from the study due to an AE”; the “changes in vital signs, ECGs or laboratory values” is on record as “no clinically significant changes”; the “subjects who developed antibodies specific to Peptide I” value is listed as “None”. The “overall safety and tolerability” value in [2] (single IV doses of 0.025, 0.05 or 0.1 mg/kg) was “safe and well tolerated”. In [2] (subjects dosed with Peptide I), this molecule displayed an abdominal pain of 10.0%, a headache of 20.0%, a nasopharyngitis of 10.0% and a nausea of 10.0%. The “subjects who experienced adverse events” value in series [2] (subjects receiving Peptide I) is listed as 11 of 20. The “Elimination half life (t1/2)” value in series [3] is 73.7 h. Moreover, in series [4] (setting [11]), the clearance was found to be 0.763 mL/h/kg and the t1/2 result is on record as “approximately 48 hours”. The clearance in series [4] (normocythemic rats) is recorded as 1.44 mL/h/kg. Also, the “Elimination half life (t1/2)” value in series [4] (rats) is 21.5 to 30.7 h. In addition, the plasma persistence result in series [5] (in comparison to currently marketed rHuEPO products) is “sustained plasma persistence”. In addition, the Biodistribution result in series [5] (in vivo) is “primarily to the plasma fraction”. Further, the “average hemoglobin levels at Day 42” value in the series with erythropoiesis [6] (0.1 mg/kg) is “returned to baseline”. Also, the “average maximum increase from baseline in hemoglobin” value in the series on erythropoiesis [6] (0.1 mg/kg, 10 recipients) amounted to 1.36 ± 0.39 g/dL. The “difference in change from baseline hemoglobin versus placebo” value in the series with erythropoiesis [6] (0.1 mg/kg, at Day 42 as throughout the study) is not below 0.5 g/dL. For the same molecule, the “time of maximum reticulocyte counts postdose” value in the series with erythropoiesis [6] (all dose cohorts) is “approximately 7 days”. Also, in the series with erythropoiesis [6] (over 28 days post-dose), the “hemoglobin response and change from baseline (mean and maximum)” value was “dose-dependent increases”. For the same molecule, the “Reticulocyte count (absolute number and percent)” value in the series with erythropoiesis [6] (single IV 0.025, 0.05, 0.1 mg/kg) is recorded as “dose-dependent increase”. Also, the “PAD associated with at least a 1.0 g/dL increase in hemoglobin” value in the series with erythropoiesis [6] (single IV dose, NHV) is recorded as 0.1 mg/kg. Also, in the series with erythropoiesis [6] (with increasing dose), the “Serum EPO levels” value is given as “transiently decreased”. Also, in [1] (Table 6), the 90% effect level (EC90) was put at 3 nM. Further, in series [7] (0.025 mg/kg), the “Plasma clearance, geometric mean” value came out at 78.0 mL/h; the “Volume of distribution, mean” value is given as 2165 mL; the “half-life, mean” value stood at 19.2 h; the “half-life, range” value was in the range of 16.7 to 21.9 h. In [7] (0.025 mg/kg), the “plasma concentrations quantifiable (>25 ng/mL) up to” value (shortened to “plasma concentrations quantifiable”) is recorded as “up to 96 hours”. In addition, in series [7] (0.05 mg/kg), the “Plasma clearance, geometric mean” value was 70.7 mL/h; the “Volume of distribution, mean” value stood at 1903 mL; the “half-life, mean” value worked out at 18.7 h; the “half-life, range” value is 15.3 to 25.1 h. The “plasma concentrations quantifiable” value in series [7] (0.05 mg/kg) was not above 5 days. Further, in [7] (0.1 mg/kg), the “Plasma clearance, geometric mean” value amounted to 59.2 mL/h; the “Volume of distribution, mean” value is reported as 2010 mL; the “half-life, mean” value came out at 23.5 h; the “half-life, range” value was 17.7 to 33.1 h. For the same molecule, in [7] (0.1 mg/kg), the “plasma concentrations quantifiable” value was not above 7 days and the tmax is approximately 1 h. In [7] (dose normalized, ANOVA), the “AUC(0-infinity) relationship with dose” value is given as “non-linearity at the highest dose” and the “Cmax relationship with dose” value is “linear relationship with dose”. Besides, the “plasma concentration at which metabolic/elimination processes saturate” value in [7] (human, in vivo) is given as more than 400 ng/mL. Also, in the series on erythropoiesis [8] (rats and monkeys), the “rise in reticulocytes and RBCs as measured by hemoglobin levels” value is “dose proportional”. The stimulation of erythropoiesis entry in the series on erythropoiesis [8] (single or repeat dose, mice, rats (normocythemic and nephrectomized), dogs, rabbits, monkeys) was “potent stimulator of erythropoiesis with dose-dependent activity”.
Take “peptide dimer of SEQ ID NO: 3 monomers (AcG)GLYACHMGPIT(1-nal)VCQPLR(MeG) [Peptide III] (Ac-GGLYACHMGPIT[1Nal]VCQPLR[Sar]; disulfide 6-15 (inferred); not fully specified (residue 1); printed as (AcG)GLYACHMGPIT(1-nal)VCQPLR(MeG); also: homodimer, C-termini joined to the alpha- and epsilon-amino groups of a lysine linker, spacer and PEG on the linker)”: the EC90 in series [1] (Table 2) worked out at 2.7 nM.
Still for that read-out and setting: then “peptide dimer of SEQ ID NO: 3 monomers (AcG)GLYACHMGPIT(1-nal)VCQPLR(MeG) [Peptide II] (Ac-GGLYACHMGPIT[1Nal]VCQPLR[Sar]; disulfide 6-15 (inferred); not fully specified (residue 1); printed as (AcG)GLYACHMGPIT(1-nal)VCQPLR(MeG); also: homodimer, C-termini joined to the alpha- and epsilon-amino groups of a lysine linker, spacer and PEG on the linker)”, with 2.2 nM.

B1: Peptide II (SEQ ID NO: 3) (peptide)
peptide: Ac-GGLYACHMGPIT[1Nal]VCQPLR[Sar]
modifications: disulfide 6-15; not fully specified (C-terminus); printed as (AcG)GLYACHMGPIT(1-nal)VCQPLR(MeG); also: homodimer of two monomers, C-termini joined to alpha- and epsilon-amino groups of a lysine linker with spacer and PEG
For B1, in [9], the IC50 amounted to 0.11 nM.

B2: Peptide I (SEQ ID NO: 2) (peptide)
peptide: Ac-GGLYACHMGPIT[1Nal]VCQPLR[Sar]K
modifications: disulfide 6-15; not fully specified (residue 21); printed as (AcG)GLYACHMGPIT(1-nal)VCQPLR(MeG)K; also: PEGylated homodimer, second copy joined via the branched linker on K21 epsilon-amine, linker, PEG size and linkage not given here
Take B2: the half-inhibitory concentration (IC50) in series [10] was 111 nM.
